Experimental data as given in the Immune Epitope Database (IEDB).
pKd: −log10 of the molar value.

Tests used:
Test in all cases: IEDB peptide-MHC binding, purified MHC/competitive/radioactivity; filed as Kd, often an IC50 or EC50 that approximates it; ≥ and ≤ were set here for values at or beyond the usual limits of such assays
HLA-A*68:01 = target: HLA-A*68:01
HLA-A*03:01 = target: HLA-A*03:01
HLA-A*11:01 = target: HLA-A*11:01
HLA-A*33:01 = target: HLA-A*33:01
HLA-A*31:01 = target: HLA-A*31:01
[1] = source organism: Vaccinia virus WR
[2] = source organism: Lassa virus GA391
[3] = source organism: Dengue virus 3 Martinique/1243/1999
[4] = source organism: SARS coronavirus Tor2
[5] = source organism: Dengue virus 4 Philippines/H241/1956
[6] = source organism: Dengue virus 2 Jamaica/1409/1983
[7] = source organism: Dengue virus 1 Brazil/97-11/1997

LILSNKLLY showed a pKd (HLA-A*68:01; [1]) of 5.26, a pKd (HLA-A*03:01; [1]) of 7.86 and a pKd (HLA-A*11:01; [1]) of 6.72. For the same sequence, the pKd (HLA-A*33:01; [1]) was 4.88 and the pKd (HLA-A*31:01; [1]) was 5.25.
For LIPLSEMVVK, the pKd (HLA-A*68:01; [1]) was 5.83, the pKd (HLA-A*03:01; [1]) was 6.12 and the pKd (HLA-A*11:01; [1]) was 7.26. For the same sequence, the pKd (HLA-A*33:01; [1]) was ≤ 4.60 and the pKd (HLA-A*31:01; [1]) was 5.13.
With LMSGRGIGK the pKd (HLA-A*03:01; source organism: Dengue virus 2 Peru/IQT2913/1996) was 7.32.
LMSIISTFH gave a pKd (HLA-A*68:01; [2]) of 5.50, a pKd (HLA-A*03:01; [2]) of 5.65 and a pKd (HLA-A*11:01; [2]) of 4.95. For the same sequence, the pKd (HLA-A*33:01; [2]) was ≤ 4.11 and the pKd (HLA-A*31:01; [2]) was 6.32.
For LSKDKMDSFK, the pKd (HLA-A*68:01; [1]) was 8.84, the pKd (HLA-A*03:01; [1]) was 7.60 and the pKd (HLA-A*11:01; [1]) was 7.82. It also gave a pKd (HLA-A*33:01; [1]) of 6.52 and a pKd (HLA-A*31:01; [1]) of 7.56.
MGITAEWLWR showed a pKd (HLA-A*31:01; [3]) of 7.05.
In the case of MLLQFAYSNR, the pKd (HLA-A*68:01; [4]) was 7.29, the pKd (HLA-A*03:01; [4]) was 6.79 and the pKd (HLA-A*11:01; [4]) was 6.07. It also gave a pKd (HLA-A*33:01; [4]) of 6.94 and a pKd (HLA-A*31:01; [4]) of 7.65.
For MSSSVDVDIY, the pKd (HLA-A*68:01; [1]) was 6.60, the pKd (HLA-A*03:01; [1]) was ≤ 4.59 and the pKd (HLA-A*11:01; [1]) was 4.90. The pKd (HLA-A*33:01; [1]) was ≤ 4.53 and the pKd (HLA-A*31:01; [1]) was ≤ 4.15.
Work on MTHRRPTIEK yielded a pKd (HLA-A*68:01; [3]) of 6.71, a pKd (HLA-A*03:01; [3]) of 8.25 and a pKd (HLA-A*11:01; [3]) of 6.93.
MVEPWLSSK was tested, and the pKd (HLA-A*11:01; [5]) was 6.19.
Sequence NFIPIIYSK has a pKd (HLA-A*68:01; [1]) of 7.11, a pKd (HLA-A*03:01; [1]) of 5.06 and a pKd (HLA-A*11:01; [1]) of 6.67. It also gave a pKd (HLA-A*33:01; [1]) of 7.59 and a pKd (HLA-A*31:01; [1]) of 7.86.
For NMSFRDLGR, the pKd (HLA-A*33:01; [6]) was 8.05.
For PFLALGFFLR, the pKd (HLA-A*33:01; [3]) was 6.54 and the pKd (HLA-A*31:01; [3]) was 6.73.
In the case of RILQRGLLGR, the pKd (HLA-A*03:01; [7]) was 7.79 and the pKd (HLA-A*31:01; [7]) was ≤ 4.15.
In the case of RTYSDPLALR, the pKd (HLA-A*68:01; [7]) was 7.73, the pKd (HLA-A*11:01; [7]) was 7.04 and the pKd (HLA-A*31:01; [7]) was ≤ 4.15.
Sequence SAAIDGEYR has a pKd (HLA-A*68:01; [7]) of 7.38.
SAKLQWFVER was tested, and the pKd (HLA-A*33:01; [3]) was 7.08 and the pKd (HLA-A*31:01; [3]) was 7.46.
With STSQETWNR the pKd (HLA-A*68:01; [7]) was 7.16.
Work on TFKVPHAKR yielded a pKd (HLA-A*33:01; [5]) of 7.80 and a pKd (HLA-A*31:01; [5]) of 8.92.
Sequence TILIKVEYK has a pKd (HLA-A*11:01; [3]) of 5.90.
Sequence TLLSLTFIK has a pKd (HLA-A*03:01; [7]) of 8.87 and a pKd (HLA-A*11:01; [7]) of 7.91.
For TTVITPMMR, the pKd (HLA-A*68:01; [7]) was 7.46.
With VTFKVPHAK the pKd (HLA-A*68:01; [5]) was 6.75, the pKd (HLA-A*03:01; [5]) was 7.99 and the pKd (HLA-A*11:01; [5]) was 7.27.
Sequence YLALLAAFK has a pKd (HLA-A*68:01; [6]) of 7.74 and a pKd (HLA-A*03:01; [6]) of 8.88.
In the case of YMPSMKRFRR, the pKd (HLA-A*68:01; [6]) was 5.95, the pKd (HLA-A*33:01; [6]) was 7.97 and the pKd (HLA-A*31:01; [6]) was 7.99.
